Measured values reported in patent US20150086555A1.

These binders were tested against recombinant trimeric HA of H1N1 A/California/04/09 (Influenza A virus A/California/04/2009 (H1N1)). Conditions: remark: other sources report otherwise.

Row | Binder | Kd | koff | kon
1 | Fab fragment of TCN-535 (5246_P19) (Fab, V domains shown) VH: QVQLVQSGSEVKKPGTSVKVSCTASGSVFTNYGISWVRQAPGQGLEWMGGIIPLFGAAKYAQKFQGRVTITADESTKTVYMELSRLTSKDTAIYFCAKAPRVYEYYFDQWGQGTPVTVSS VL: EIVLTQSPGTLSLSPGERATLSCRASQSVSSSQLAWYQQKPGQAPRLIIYGASTRATGIPDRFSGSGSGTDFTLTIGRLEPEDFAVFFCQQYSTSPPTFGQGTKVDFK | 0.165 nM | 0.000163 s⁻¹ | 987000 M⁻¹ s⁻¹
2 | Fab fragment of TCN-534 (5249_B02) (Fab, V domains shown) VH: QVQLVQSGAEVKKPGSSVKVSCRESGGTFNGYTITWVRQAPGQGLEWMGGIIPMMGTVNYAQKLQGRVTITTDYFTKTAYMDLNNLRSEDTAMYYCVKIRYTGQQLLWGQGTLVTVSS VL: DIQMTQSPSTLSASIGDRVTITCRASQSIASWLAWYQQKPGKAPKLLIYEAVNLESGVPSRFSGSGSGTDFTLTISSLQPDDFATYFCQHYGTISQTFGGGTKVEIK | 0.104 nM | 5.96e-05 s⁻¹ | 573000 M⁻¹ s⁻¹
3 | Fab fragment of TCN-522 (3212_I12) (Fab, V domains shown) VH: QVQLQQWGAGLLKPSETLSLTCTVSGGSLTDYSWNWIRQPPGKGLEWIGDTLHNGYTNYNPSLRGRVSISIDTSKNQVSLRLTSVTAADTALYYCARGSGGYGGFDYFGKLRTWDFWGQGTLVTVSS VL: DIQLTQSPSSLSASVGDRVTITCRASQGIRNDLGWYQQKPGNAPKRLIFGASSLQSGVPSRFSGSGSGTEFTLTISSLQPEDFATYYCLQHNSYPYTFGQGTKLEIK | 0.55 nM | 3.8e-05 s⁻¹ | 69800 M⁻¹ s⁻¹
4 | Fab fragment of TCN-523 (5248_A17) (Fab, V domains shown) VH: QVQLVQSGAEVKKPGSSVKVSCKASGGSFSNYAFSWVRQAPGQGLEWMGGTIPLLGTTNYAQKFQGRVTISADQFTSTAYMELGSLRSEDTAVYYCTRRKMTTAFDSWGQGTLVTVSS VL: QPVLTQPPSASASLGASVTLTCTLSSAYSNYKVDWYQQRPGKGPRFVMRVGTGGIVGSKGDGIPDRFSVLGSGLNRYLTIKNIQEEDESDYHCGADHGSGSNFVSPYVFGGGTKLTVL | 0.09 nM | 5.1e-05 s⁻¹ | 540000 M⁻¹ s⁻¹
5 | Fab fragment of TCN-530 (5248_H10a) (Fab, V domains shown) VH: QVQLVQSGAEVRKPGSSVKVSCKASGGPFMSYAIGWVRQAPGQGLEWMGGINPVFGRPHYAQKFQGRVTIATDDSTKTSYMELSSLTSEDTGMYYCASRYSRSSPGTFESWGQGTLVTVSS VL: EIVMTQFPATLSVSPGERVTLSCRASQSVSNNLAWYQQKPGQPPRLLIYDASTRATGVPAKFSGTGSGTEFTLSISSLQSEDFAVYYCQQYHNWPPSYSFGLGTKLEIK | 0.562 nM | 0.000287 s⁻¹ | 511000 M⁻¹ s⁻¹
